Measurements reported in the nanobody polyreactivity screen of Harvey et al. (2022).

Test: yeast display, Sf9 membrane polyspecificity reagent, FACS + sequencing; frameworks hold sequencing errors
How it was run: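 In a synthetic yeast display library (Saccharomyces cerevisiae BJ5465), nanobody expression was induced with galactose for 36–48 hours. FACS gates were set low and high (top ~1%) using anti-HA fluorescence for expression and streptavidin fluorescence for binding of the Sf9 membrane reagent. Each polyreactivity label is drawn from the gate of origin.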

QVQLVVSGGGLVQAGGSLRLSCAASGITFGRNTMGWYRQAPGKERELVAAIDSGGNTYADSVKGRFTISRDNAKNTVYLQMNSLKPEDTAVYYCAVDGGEFSSYGYWGQGTQVTVSS
polyreactivity (PSR sort gate): low polyreactivity

QVQLVESGGGLVQAGGSLRLSCAASGFTLTGNAMGWYRQAPGKERELVAAISRNGGSTFYADSVKGRFTISRDNAKNTVYLQMNSLKPEDTAVYYCNASRYRHSAYKYDSWGQGTQVTVSS
polyreactivity (PSR sort gate): high polyreactivity

QVQLVESGGGLVQAGGSLRLSCAASGFTFQNYVMGWYRQAPGKERELVAAINSGGRTYYADSVKGRFTISRDNAKNTVYLQMNSLKPEDTAVYYCNAVQPATYKYRSHVIEYDYWGQGSQVTVSS
polyreactivity (PSR sort gate): high polyreactivity

QVQLVESGRGLVQAGGSLRLSCAASGRTFAVSTMGWYRKAAGQERELVATISWSGGSTYYADSVKGRFTISRDNAKNTVYLQMNSLKPEDTAVYFCNADFTWGSYERDYWGQGTQGTVSS
polyreactivity (PSR sort gate): high polyreactivity

QVQLVESGGGLVQAGGSLRLICAASGRTFTYYDMGWYRQAPGKERELVAGITARGGSTYADSVKGRFTISRDNAKNTVYLQMNSLKPEDTAVYYCAADLYTSLDSTYDYWGQGTQVTVSS
polyreactivity (PSR sort gate): low polyreactivity

QVQLVESGGGLVQAGGSLRLSCAASGRTFSRYAMGWYRQAPGKERELVAAITWSGGRTYYADSVKGRFTISSDNAKNTVYLQMNSLKPEDTAVYYCAASYRCYKHADPLYNYWGQGTQVTVSS
polyreactivity (PSR sort gate): low polyreactivity

QVQLVESGGGLVQAGGSLRLSCAASGSIFGIYVMGWYRQAPGKERELVAGISTRGGSTYYADSVKGRFTISRDNAKNTVYLQMNSLKPEDTAGYYCAAVPASYRDPMYYWGQGTQVTVSS
polyreactivity (PSR sort gate): low polyreactivity

QVQLVESGGGLVQAGGSLRLSCAASGRIFPFYAMGWYRQAPGKERELVAAITSSGGRTYYADSVKGRFTISRDNAKNTVYLQMNSLKPEDTAVYYCAAGHGGYYRYFSQRDYWGQGTQVTVSS
polyreactivity (PSR sort gate): low polyreactivity

QVQHVESGGGLVQAGASLRLSCAASRRTFYRYAMGWSRQAPGKERELVAAISSGGSTNYADCVKGRFTISRDNAKNTVYLHMNRLKPEDTAVYYCAAETRLHRQDYDYWGQGTQVTVSS
polyreactivity (PSR sort gate): low polyreactivity

QVQLVESGGGLVQAGGSLRLSCAASGSISGLYAMGWYRQATGKERELVAAITFRDGTTSYADSVKGRFTISRDNAKNTVYLQMNSLKPEDTAVYYCAAVDRDSNSSVPTLDHWGQGTQVTVSS
polyreactivity (PSR sort gate): low polyreactivity

QVQLVESGGGLVQAGGSLRLSCAASGSIFSFYAMGSYRQAPGKERELVAAISWSGGSTYYADSVKGRFTISRDNAKNTVYLLMNSLKPEDTAVYYCAREKAVSYYGYDHWGQGTQVTVSS
polyreactivity (PSR sort gate): low polyreactivity

QVQMQESSGGLVHAGGSLRKSCAASGTIYHFHIMGWYRQAPGKEREFVAAIRYGTSTYYADSVKGLFTISRDNEKNTVYVKMNSQKPEDTAVYYCAVYDYLEVYCWYWGQGTQVTVSS
polyreactivity (PSR sort gate): low polyreactivity

QVQLVESGGGLVQAGGSHRLSCDASGRTFWVNAMGWYRQAPGKERELVATIRGSGVSTYYADSVNGRFTISRDNAKNTVYLKMNSLKPVDTAVYYCATTYHRVGLQYTFDYLGQGTQVTVSS
polyreactivity (PSR sort gate): low polyreactivity

QVQLEESGAGLVQAGCSLRLSCAASGSTLFNNAMGWYRQAPGKERELVAAITFSGASTYYADSVKGRFTISRDNAKNTVYLQMNSLKPEDTAVYYCGADPSFNYIPVYYFDYDYWGQATQVTVSS
polyreactivity (PSR sort gate): low polyreactivity

QVQLVESGGGLVQAGGSLRLSCAASGSTFRVNTMGWYRQAPGKERELVAAISWSTGTSTYADSVKGRFTISRDNAKNTVYLQMNSLKPEDTAVYYCAAGQPAWGVEYDSWGQGTQVTVSS
polyreactivity (PSR sort gate): low polyreactivity

QVQLVESGGGLVQAGGSLRLSCAASGYTFGSSTMGWYRPAAGTERELVAAISNRGGPYYADAVKGRFTISRDNAKNTVYLQMNSLTPEDTAVYYCAVARRCGYDYWGQGTQVTVSS
polyreactivity (PSR sort gate): high polyreactivity

QVQLVESGGGLVQAGGSLRLSCAASGFTFRTNAMGWYRQAPGKERELVAVISRRGGSTYYADSVKGRFTISRDNAKNTVYLQMNSLKPEDTGVYYCNAGDGTVGRTYYRAYDYWGQGTQVTVSS
polyreactivity (PSR sort gate): high polyreactivity

QVQHVESGGVLVQAGGSLRLSCAASGSTFGGYAMGWYRQAPGKERELVASISRRGGSTYYADSVKGRFTLSRDNAKNTFYFHMNSLKPEDTAVYYCNAAFLRQVWDGYNYWGQGSQVTVSS
polyreactivity (PSR sort gate): high polyreactivity

QVQLQESGGGLVKAGGSLRLSCAASGNISNHNDMGWYRQAPGKEREFVAGITAGGITNYADSVKGRFTISRDNAKNTGYLQMNSLKPEDTAVYYCAAYPDYAKSYGYWGQGTQATVSS
polyreactivity (PSR sort gate): low polyreactivity

QVQLVESGGGLVQAGGSLRLSCAASGRIFFPYAMGWYRQAPGKERELVAAISTSSGRTYYADSVKGRFTISRDNAKNTVYLQMNSLKPEDTAVYYCNTRPGSYSYSYRYYYWGQGTQVTVSS
polyreactivity (PSR sort gate): high polyreactivity

QVQLVESGGGLVQAGGSLRLSCSASGYTFSSYGMGWYRQAPGKERELVAAITGSTGTTYYADSVQGRFTISRDNAKNTVYLQMISLKPEDTAVYYCAAEYQSYPWYDYWGQGTQVTVSS
polyreactivity (PSR sort gate): high polyreactivity

QVHLVESGGGLVQAGGSLRLSCAASGSTFVHYAMGWYRQAPGKERELVADITTGDITNYADSVKGRFTISRDNAKNTVYLQMNSLKQEDTAVYSCNARTRYITSLHQYSLDYWGQGSQVTVSS
polyreactivity (PSR sort gate): low polyreactivity

QVQLVESGGGLVQAGGSHRLSCAASGRIYGDYAMGWYRQAPGKERELVAAINSSGTSTIYADSVKGRFTISRDNAKNTVYLQLNCLKPEDTAVYYCADLFTFKYDYWGQGTQVTVSS
polyreactivity (PSR sort gate): low polyreactivity

QVQLVESGGGLVQAGGSLRLSCADSGSIFLFNAMGWYRQAPGKERELVAAINRDDSTYYADSVKGRFTISRDNAKNTVYLQMNSLKPEDTAVYYCAAPVLHASYGYGYWGQGTQVTVSS
polyreactivity (PSR sort gate): low polyreactivity

QVQLVESGGGLVQAGGSLRLSCAASGRTFDRNAMGWYRQAPGQERELVAAITSRGGRTYYADSVKGRFTISRDNEKNTVYLQMNSLKPADTAVYYCAADLFSSRVRSNFDYWGQGTQVTVSS
polyreactivity (PSR sort gate): high polyreactivity

QVQLVESGGGLVQPGGSLRLSCAASGRTLHYNVMGWYRQAPGKEREFVAAITKSGGITYYADSVKGRFTISRDNAKNTVYLQMNSLKPEETAVDYCAADSPSWSWRISWSRYDYWGQGTQVTVSS
polyreactivity (PSR sort gate): low polyreactivity

QVQLVESGGGLVQAGGSLRLSCAASGSTYGYAMGWYRQAPGKERELVAAISSSGGRTYYADSVKGRFTISRDNAKNTVYLQMNSLKPEDTAVYYCAAGGFSQHGHGYWGQGTQVTVSS
polyreactivity (PSR sort gate): high polyreactivity

QVKLVESGGGLVQAGGSLRLSCAASGRIFLWYAMGWYRQEPGKERELVAAISSNGGSTRYAHSVKGRFTISRDNAKNTVYLQMNSLKPEDTAVYYCNADVHWNRYPYGGNGYGYWGQGTQVTVSS
polyreactivity (PSR sort gate): low polyreactivity

QVQLVESGRGLVQAGGSLRLSCAASGSIFNCYDMGWYRQAPGKERELVADIRSAGSTYYADSVKGRFTISRDNAKNTVYLQMNSLKPEDTAVNYCAAEAPVQPFYVFNTGIYELDYWGQGTQVTVSS
polyreactivity (PSR sort gate): low polyreactivity

QVQLVESGGGLVQAGGSLRLSCAASGFIFAWYTMGWYRQAPGKERELVAAISANGGNTYYADSVKGRFTISRDNAKNTVYLQMNSLKPEDTAVYYCAALYKYSSSFDYWGQGTQVTVSS
polyreactivity (PSR sort gate): high polyreactivity

QVQLVESGGGLVQAGGSLRLSCAASGFTLDDNGMGWYRQAPGKERELVASITWSGGSTYYADSVKGRFTISRDNAKNTVYLQMNSLKPEDTAVYYCNVGDPIGGFLSYWGGDYWGQGTQVTVSS
polyreactivity (PSR sort gate): low polyreactivity
